The text below walks through data of article PMC9288512 (2022).

The target in test [1] is T1, recombinant human proprotein convertase subtilisin/kexin 9 (hPCSK9), his-tagged (human, UniProt Q8NBP7 153-692). As to the kind of experiment: SPR. (In SPR one partner is held on a chip, and binding of the other changes the refractive index at the surface.)
In test [2] the target is T1, recombinant human proprotein convertase …. The test can be described thus: SPR. This is another data set of the same source.

T1 sequence (Q8NBP7 153-692): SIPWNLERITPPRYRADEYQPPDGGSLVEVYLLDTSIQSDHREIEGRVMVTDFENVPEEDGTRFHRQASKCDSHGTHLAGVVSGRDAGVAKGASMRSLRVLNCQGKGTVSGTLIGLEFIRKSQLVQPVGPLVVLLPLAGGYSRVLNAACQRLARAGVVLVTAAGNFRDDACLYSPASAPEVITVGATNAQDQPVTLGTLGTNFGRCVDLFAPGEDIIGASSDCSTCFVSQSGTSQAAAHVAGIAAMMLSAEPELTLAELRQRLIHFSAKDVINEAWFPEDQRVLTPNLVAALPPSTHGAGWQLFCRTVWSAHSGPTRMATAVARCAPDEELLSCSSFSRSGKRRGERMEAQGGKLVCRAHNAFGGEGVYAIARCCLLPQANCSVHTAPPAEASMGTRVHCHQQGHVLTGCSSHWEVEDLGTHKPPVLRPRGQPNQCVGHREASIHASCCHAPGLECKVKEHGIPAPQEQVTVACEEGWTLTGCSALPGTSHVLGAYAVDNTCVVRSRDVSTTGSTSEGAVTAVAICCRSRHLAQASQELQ

B1: VHH-B11 (monovalent camelid nanobody against hPCSK9) (VHH)
VHH: QVQLQESGGGSVQAGGSLRLSCTVSGYTYSSNCMGWFRQAPGKEHEGVASIYIGGGSTYYADSVKGRFTISQDNAKNTVYLQMNSLKPEDTAMYYCAVGCQGLVDFGYWDQGTQVTVSS
One may read the Kd as the free concentration of one partner at which half of the binding sites on the other are occupied at equilibrium, for simple one-to-one binding. As a reminder, the koff is a measure of how fast the partners let go of each other. Take B1: the Kd in test [1] was roughly 5.01 nM. Further, in test [2], the koff stood at 0.000174 s⁻¹.

B2: Llama VHH-human IgG4 hinge linker-IgG4 Fc chimeric HcAb (VHH-B11-Fc) (Fc fusion)
chain: QVQLQESGGGSVQAGGSLRLSCTVSGYTYSSNCMGWFRQAPGKEHEGVASIYIGGGSTYYADSVKGRFTISQDNAKNTVYLQMNSLKPEDTAMYYCAVGCQGLVDFGYWDQGTQVTVSS
For the molecule B2, in test [1], the Kd amounted to 0.689 nM. Further, the koff in test [2] came out at 0.00123 s⁻¹.
